Measurements as given in US20220033520A1.

Key:
[1] = molecular target: human FcRn complex (FCGRT and beta-2 microglobulin), recombinant, purified (human) (UniProt P55899); assay: SPR, anti-human Fab capture, pH 7.4, steady state
[2] = molecular target: human FcRn complex (FCGRT and beta-2 microglobulin), recombinant, purified (human) (UniProt P55899); assay: SPR, anti-human Fab capture, pH 6, steady state
[3] = molecular target: human FcRn (FCGRT and beta-2 microglobulin) expressed on MDCK II cells (human) (UniProt P55899); assay: cell-based or functional assay
[4] = molecular target: human FcRn complex (FCGRT and beta-2 microglobulin), recombinant, purified (human) (UniProt P55899); assay: SPR, protein L capture, pH 6, kinetic
[5] = molecular target: human FcRn complex (FCGRT and beta-2 microglobulin), recombinant, purified (human) (UniProt P55899); assay: SPR, protein L capture, pH 7.4, steady state
[6] = molecular target: murine FcRn complex (Fcgrt and beta-2 microglobulin), recombinant (mouse) (UniProt Q61559); assay: binding to mFcRn at pH 7.4 (FIG. 2D)
[7] = molecular target: murine FcRn complex (Fcgrt and beta-2 microglobulin), recombinant (mouse) (UniProt Q61559); assay: binding to mFcRn at pH 6.0 (FIG. 2D)

Chain of human FcRn (FCGRT and beta-2 microglobulin) expressed on MDCK II cells (human) (P55899 24-365, chain 1 of 2): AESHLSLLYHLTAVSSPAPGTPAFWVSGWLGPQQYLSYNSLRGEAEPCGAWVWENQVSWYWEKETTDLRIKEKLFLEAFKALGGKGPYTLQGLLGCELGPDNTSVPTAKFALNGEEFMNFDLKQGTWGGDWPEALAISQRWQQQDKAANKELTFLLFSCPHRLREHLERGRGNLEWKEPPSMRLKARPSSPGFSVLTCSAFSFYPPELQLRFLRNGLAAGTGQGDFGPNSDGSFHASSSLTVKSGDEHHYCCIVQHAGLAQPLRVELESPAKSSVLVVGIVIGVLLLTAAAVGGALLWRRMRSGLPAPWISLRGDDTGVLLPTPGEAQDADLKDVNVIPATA
Chain of human FcRn (FCGRT and beta-2 microglobulin) expressed on MDCK II cells (human) (P61769 21-119, chain 2 of 2, further chain): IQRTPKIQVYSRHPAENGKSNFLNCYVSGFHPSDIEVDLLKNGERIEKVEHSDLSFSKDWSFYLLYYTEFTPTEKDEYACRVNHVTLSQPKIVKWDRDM
Chain of human FcRn complex (FCGRT and beta-2 microglobulin), recombinant, purified (human) (P55899 24-297 limits assumed, chain 1 of 2): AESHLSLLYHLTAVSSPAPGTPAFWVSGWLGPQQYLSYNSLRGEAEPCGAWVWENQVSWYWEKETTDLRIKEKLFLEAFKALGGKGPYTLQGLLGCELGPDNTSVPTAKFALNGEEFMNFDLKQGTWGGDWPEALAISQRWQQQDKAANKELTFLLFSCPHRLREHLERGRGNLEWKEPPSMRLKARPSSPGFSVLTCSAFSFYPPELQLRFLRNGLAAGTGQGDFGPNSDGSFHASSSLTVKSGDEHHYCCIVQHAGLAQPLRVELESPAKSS
Chain of human FcRn complex (FCGRT and beta-2 microglobulin), recombinant, purified (human) (P61769 21-119 limits assumed, chain 2 of 2, further chain): as the sequence (P61769 21-119, chain 2 of 2, further chain) above
Chain of murine FcRn complex (Fcgrt and beta-2 microglobulin), recombinant (mouse) (Q61559 22-297, one chain of several): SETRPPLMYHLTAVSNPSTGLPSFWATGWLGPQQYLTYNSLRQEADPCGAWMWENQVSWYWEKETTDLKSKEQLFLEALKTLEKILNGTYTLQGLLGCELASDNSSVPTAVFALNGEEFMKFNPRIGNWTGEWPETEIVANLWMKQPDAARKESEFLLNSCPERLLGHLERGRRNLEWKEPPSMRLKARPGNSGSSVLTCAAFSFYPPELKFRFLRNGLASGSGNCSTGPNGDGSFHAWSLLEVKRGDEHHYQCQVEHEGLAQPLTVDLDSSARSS

Substance | Kd [1] [nM] | Kd [2] [nM] | Transcytosis Normalized to WT (normalized to WT) [3] | Kd [4] [nM] | koff [4] [s⁻¹] | kon [4] [M⁻¹ s⁻¹] | Kd [5] [nM] | fold improvement of binding over wild-type hIgG1 [6] [fold] | fold improvement of binding over wild-type hIgG1 [7] [fold]
anti-Abeta hIgG4 antibody, Fc modification Q1 (M252Y/T307Q/Q311I/N434Y) | 165 | 6.3 | – | – | – | – | – | – | –
anti-Abeta hIgG4 antibody, Fc modification Q3 (M252Y/T307Q/N434Y/Y436I) | 158 | 5.9 | – | – | – | – | – | – | –
anti-BACE1 hIgG1 antibody, Fc modification D1 (M252Y/N434Y) | 1010 | 13 | 79 | 28.7 | 0.0264 | 919000 | 963 | – | –
anti-BACE1 hIgG1 antibody, Fc modification Q1 (M252Y/T307Q/Q311I/N434Y) | 157 | 6.6 | 132 | 4.69 | 0.00349 | 743000 | 197 | – | –
anti-BACE1 hIgG1 antibody, Fc modification Q2 (M252Y/T307Q/M428L/N434Y) | 211 | 8.7 | 155 | 11.1 | 0.00648 | 582000 | 663 | – | –
anti-BACE1 hIgG1 antibody, Fc modification Q3 (M252Y/T307Q/N434Y/Y436I) | 170 | 6.5 | 137 | – | – | – | 202 | – | –
anti-BACE1 hIgG1 antibody, Fc modification Q6 (M252Y/M428L/N434Y/Y436I) | 194 | 8.9 | 155 | 7.72 | 0.00494 | 639000 | 380 | – | –
anti-BACE1 hIgG1 antibody, Fc modification Q7 (M252Y/Q311A/N434Y/Y436I) | 269 | 7.3 | 108 | 6 | 0.00529 | 920000 | 295 | – | –
anti-BACE1 hIgG1 antibody, Fc modification Q95 (M252Y/T307Q/Q311A/N434Y) | 240 | 6.9 | 100 | 7.35 | 0.00608 | 828000 | 228 | – | –
anti-BACE1 hIgG1 antibody, Fc modification T3 (M252Y/Q311I/N434Y) | 307 | 9.1 | 137 | 14 | – | – | – | – | –
anti-BACE1 hIgG4 antibody, Fc modification Q1-IgG4 (M252Y/T307Q/Q311I/N434Y) | 120 | 5.2 | 82 | 5.22 | – | – | 114 | – | –
anti-BACE1 hIgG4 antibody, Fc modification Q2 (M252Y/T307Q/M428L/N434Y) | 370 | 6.6 | – | – | – | – | – | – | –
anti-BACE1 hIgG4 antibody, Fc modification Q3-IgG4 (M252Y/T307Q/N434Y/Y436I) | 124 | 4.8 | 87 | 3.87 | – | – | – | – | –
anti-BACE1 hIgG4 antibody, Fc modification Q5-IgG4 (M252Y/Q311I/N434Y/Y436I) | 230 | 7.4 | 95 | 13.4 | 0.0135 | 1.01e+06 | 322 | – | –
hIgG1 antibody comprising modified Fc M252Y/S254T/T256E (YTE) | – | – | 1.9 | 154 | 0.0635 | 414000 | – | 10 | 10
